Assay results: paper PMC2132560 (The Journal of Cell Biology, 1997)

B1: recombinant hnRNP A1 protein (natural protein, human, UniProt P09651-2 1-320, looked up)
chain: MSKSESPKEPEQLRKLFIGGLSFETTDESLRSHFEQWGTLTDCVVMRDPNTKRSRGFGFVTYATVEEVDAAMNARPHKVDGRVVEPKRAVSREDSQRPGAHLTVKKIFVGGIKEDTEEHHLRDYFEQYGKIEVIEIMTDRGSGKKRGFAFVTFDDHDSVDKIVIQKYHTVNGHNCEVRKALSKQEMASASSSQRGRSGSGNFGGGRGGGFGGNDNFGRGGNFSGRGGFGGSRGGGGYGGSGDGYNGFGNDGSNFGGGGSYNDFGNYNNQSSNFGPMKGGNFGGRSSGPYGGGGQYFAKPRNQGGYGGSSSSSSYGSGRRF
B2: GST-transportin1 fusion protein (natural protein)
chain: MEYEWKPDEQGLQQILQLLKESQSPDTTIQRTVQQKLEQLNQYPDFNNYLIFVLTKLKSEDEPTRSLSGLILKNNVKAHFQNFPNGVTDFIKSECLNNIGDSSPLIRATVGILITTIASKGELQNWPDLLPKLCSLLDSEDYNTCEGAFGALQKICEDSAEILDSDVLDRPLNIMIPKFLQFFKHSSPKIRSHAVACVNQFIISRTQALMLHIDSFIENLFALAGDEEPEVRKNVCRALVMLLEVRMDRLLPHMHNIVEYMLQRTQDQDENVALEACEFWLTLAEQPICKDVLVRHLPKLIPVLVNGMKYSDIDIILLKGDVEEDETIPDSEQDIRPRFHRSRTVAQQHDEDGIEEEDDDDDEIDDDDTISDWNLRKCSAAALDVLANVYRDELLPHILPLLKELLFHHEWVVKESGILVLGAIAEGCMQGMIPYLPELIPHLIQCLSDKKALVRSITCWTLSRYAHWVVSQPPDTYLKPLMTELLKRILDSNKRVQEAACSAFATLEEEACTELVPYLAYILDTLVFAFSKYQHKNLLILYDAIGTLADSVGHHLNKPEYIQMLMPPLIQKWNMLKDEDKDLFPLLECLSSVATALQSGFLPYCEPVYQRCVNLVQKTLAQAMLNNAQPDQYEAPDKDFMIVALDLLSGLAEGLGGNIEQLVARSNILTLMYQCMQDKMPEVRQSSFALLGDLTKACFQHVKPCIADFMPILGTNLNPEFISVCNNATWAIGEISIQMGIEMQPYIPMVLHQLVEIINRPNTPKTLLENTAITIGRLGYVCPQEVAPMLQQFIRPWCTSLRNIRDNEEKDSAFRGICTMISVNPSGVIQDFIFFCDAVASWINPKDDLRDMFCKILHGFKNQVGDENWRRFSDQFPLPLKERLAAFYGV

Experiments:
[1] = molecular target: B2; experiment: native gel or EMSA
RanGTP = RanGTP (UniProt P62826 1-216); experiment: native gel or EMSA

Binder	binding result [1]	binding result (RanGTP)
B1	binds	
B2		binds
